# Numbering of substitutions follows the chain as printed. Names and notes keep the numbering of the source.
# T1: EsCas13d, nuclease-dead (Eubacterium siraeum, UniProt B0MS50, R295A;H300A;R849A;H854A)
# T1 sequence: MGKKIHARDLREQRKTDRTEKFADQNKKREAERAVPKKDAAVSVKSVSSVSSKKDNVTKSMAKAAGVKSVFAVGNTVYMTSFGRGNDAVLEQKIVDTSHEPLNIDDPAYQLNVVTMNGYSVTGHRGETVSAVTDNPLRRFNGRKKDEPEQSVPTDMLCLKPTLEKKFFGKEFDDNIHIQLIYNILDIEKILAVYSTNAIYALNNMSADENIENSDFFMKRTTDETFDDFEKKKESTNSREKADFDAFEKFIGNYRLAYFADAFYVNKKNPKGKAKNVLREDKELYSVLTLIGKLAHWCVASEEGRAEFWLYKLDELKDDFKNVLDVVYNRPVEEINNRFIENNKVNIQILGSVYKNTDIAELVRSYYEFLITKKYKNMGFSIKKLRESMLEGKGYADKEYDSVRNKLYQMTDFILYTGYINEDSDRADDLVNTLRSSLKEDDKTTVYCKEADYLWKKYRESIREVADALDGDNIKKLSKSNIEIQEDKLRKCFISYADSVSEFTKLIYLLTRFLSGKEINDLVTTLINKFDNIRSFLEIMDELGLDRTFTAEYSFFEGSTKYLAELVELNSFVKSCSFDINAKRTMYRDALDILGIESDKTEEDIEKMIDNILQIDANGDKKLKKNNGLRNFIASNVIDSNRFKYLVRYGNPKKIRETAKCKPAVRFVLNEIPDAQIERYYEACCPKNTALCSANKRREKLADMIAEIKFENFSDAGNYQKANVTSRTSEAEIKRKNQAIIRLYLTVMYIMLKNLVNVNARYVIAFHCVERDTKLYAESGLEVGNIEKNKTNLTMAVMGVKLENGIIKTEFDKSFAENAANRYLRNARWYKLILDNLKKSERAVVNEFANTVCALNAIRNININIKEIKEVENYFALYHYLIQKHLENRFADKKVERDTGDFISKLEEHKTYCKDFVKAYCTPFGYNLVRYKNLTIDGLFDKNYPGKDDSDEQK
# B1: target 3 U2G,U21A (mixed)
# RNA 1: CACCCGUGCAAAAUUGCAGGGGUCUAAAACGACCUGAAUAUUUCAGAUCAAA
# RNA 2: GGGAAUGGAUCCACAUCUACGAAUUCGUUUAUGAUCUGAAAUAUUCAGGGCUGCAGAUCGGAAGAGCACACGU
# B2: target 3 del5,del6 (mixed)
# RNA 1: B1 RNA 1
# RNA 2: GGGAAUGGAUCCACAUCUACGAAUUCGUUUUUGAUCUGAAAUAUUGGUCUGCAGAUCGGAAGAGCACACGU
# B3: target 3 C6U,U22C (mixed)
# RNA 1: B1 RNA 1
# RNA 2: B1 RNA 2 with U30C, A31U, C46U, G50U
# B4: target 3 A5G,U8C (mixed)
# RNA 1: B1 RNA 1
# RNA 2: B1 RNA 2 with A31U, U44C, A47G, G50U
# B5: target 3 insU 3' of 22,insG 3' of 5 (mixed)
# RNA 1: B1 RNA 1
# RNA 2: GGGAAUGGAUCCACAUCUACGAAUUCGUUUUUUGAUCUGAAAUAUUCAGGGUCUGCAGAUCGGAAGAGCACACGU
# B6: target 3 A5G,U8G (mixed)
# RNA 1: B1 RNA 1
# RNA 2: B1 RNA 2 with A31U, U44G, A47G, G50U
# B7: target 3 insA 3' of 4,insA 3' of 3 (mixed)
# RNA 1: B1 RNA 1
# RNA 2: GGGAAUGGAUCCACAUCUACGAAUUCGUUUUUGAUCUGAAAUAUUCAGAGAUCUGCAGAUCGGAAGAGCACACGU
# B8: target 3 C1G,U2C (mixed)
# RNA 1: B1 RNA 1
# RNA 2: B1 RNA 2 with A31U, G50C, C51G
# B9: target 3 A9G,U21A (mixed)
# RNA 1: B1 RNA 1
# RNA 2: B1 RNA 2 with A43G, G50U
# B10: target 3 insU 3' of 11,insA 3' of 6 (mixed)
# RNA 1: B1 RNA 1
# RNA 2: B7 RNA 2 with A43U, U44A, C46U, A47C, G48A, A51G
# B11: target 3 insA 3' of 2,insA 3' of 2 (mixed)
# RNA 1: B1 RNA 1
# RNA 2: B7 RNA 2 with A49G, G50U, U52A
# B12: target 3 insG 3' of 7,insG 3' of 6 (mixed)
# RNA 1: B1 RNA 1
# RNA 2: B7 RNA 2 with C46G, A47C, A51G
# B13: target 3 insA 3' of 21,insG 3' of 2 (mixed)
# RNA 1: B1 RNA 1
# RNA 2: B5 RNA 2 with U32A, G51U, U52G
# B14: target 3 U2A,A12C (mixed)
# RNA 1: B1 RNA 1
# RNA 2: B1 RNA 2 with A31U, A40C, G50A
# B15: target 3 insC 3' of 8,insU 3' of 3 (mixed)
# RNA 1: B1 RNA 1
# RNA 2: B7 RNA 2 with U45C, C46U, A47C, G48A, A49G, A51U
# B16: target 3 insC 3' of 11,insG 3' of 5 (mixed)
# RNA 1: B1 RNA 1
# RNA 2: B7 RNA 2 with U42C, A43U, U44A, C46U, A47C, G48A, A49G, A51G
# B17: target 3 insA 3' of 21,insA 3' of 3 (mixed)
# RNA 1: B1 RNA 1
# RNA 2: B5 RNA 2 with U32A, G51A
# B18: target 3 del4,del22 (mixed)
# RNA 1: B1 RNA 1
# RNA 2: GGGAAUGGAUCCACAUCUACGAAUUCGUUUUGAUCUGAAAUAUUCAGUCUGCAGAUCGGAAGAGCACACGU
# B19: target 3 insC 3' of 22,insC 3' of 4 (mixed)
# RNA 1: B1 RNA 1
# RNA 2: B5 RNA 2 with U31C, G50C
# B20: target 3 A5G,U21A (mixed)
# RNA 1: B1 RNA 1
# RNA 2: B1 RNA 2 with A47G, G50U
# B21: target 3 insC 3' of 9,insU 3' of 4 (mixed)
# RNA 1: B1 RNA 1
# RNA 2: B7 RNA 2 with U44C, C46U, A47C, G48A, A49G, G50U, A51G
# B22: target 3 insA 3' of 7,insU 3' of 6 (mixed)
# RNA 1: B1 RNA 1
# RNA 2: B7 RNA 2 with C46A, A47C, G48U, A51G
# B23: target 3 insA 3' of 15,insC 3' of 2 (mixed)
# RNA 1: B1 RNA 1
# RNA 2: B5 RNA 2 with U33G, G34A, A35U, U36C, C37U, U38A, G51U, U52C
# B24: target 3 U2A,U21C (mixed)
# RNA 1: B1 RNA 1
# RNA 2: B1 RNA 2 with A31C, G50A
# B25: target 3 G4A (mixed)
# RNA 1: B1 RNA 1
# RNA 2: B1 RNA 2 with A31U, G48A, G50U
# B26: target 3 G3U,U22A (mixed)
# RNA 1: B1 RNA 1
# RNA 2: B1 RNA 2 with U30A, A31U, G49U, G50U
# B27: target 3 insU 3' of 11,insU 3' of 4 (mixed)
# RNA 1: B1 RNA 1
# RNA 2: B7 RNA 2 with A43U, U44A, C46U, A47C, G48A, A49G, G50U, A51G
# B28: target 3 A5U,U22A (mixed)
# RNA 1: B1 RNA 1
# RNA 2: B1 RNA 2 with U30A, A31U, A47U, G50U
# B29: target 3 insC 3' of 9,insU 3' of 6 (mixed)
# RNA 1: B1 RNA 1
# RNA 2: B7 RNA 2 with U44C, C46U, A47C, G48U, A51G
# B30: target 1 insU 3' of 17,insG 3' of 7 (mixed)
# RNA 1: CACCCGUGCAAAAAUGCAGGGGUCUAAAACUGAGCGGAUAACCUCUCUAUGG
# RNA 2: GGGAAUGGAUCCACAUCUACGAAUUCGUACCAUAGUAGAGGUUAUCGCGCUCACCGAGAUCGGAAGAGCACACGU
# B31: target 1 insU 3' of 21,insG 3' of 1 (mixed)
# RNA 1: B30 RNA 1
# RNA 2: GGGAAUGGAUCCACAUCUACGAAUUCGUACCUAUAGAGAGGUUAUCCGCUCAGCCGAGAUCGGAAGAGCACACGU
# B32: target 1 U10G,A16C (mixed)
# RNA 1: B30 RNA 1
# RNA 2: GGGAAUGGAUCCACAUCUACGAAUUCGUACCAUAGCGAGGUGAUCCGCUCACCGAGAUCGGAAGAGCACACGU
# B33: target 1 insG 3' of 9,insA 3' of 4 (mixed)
# RNA 1: B30 RNA 1
# RNA 2: GGGAAUGGAUCCACAUCUACGAAUUCGUACCAUAGAGAGGUUAGUCCGCAUCACCGAGAUCGGAAGAGCACACGU
# Molecular target: T1, EsCas13d, nuclease-dead
# Test: crRNA (strand 1, pre-loaded); Mg2+; 40 mM Tris-HCl pH 7.5, 150 mM NaCl, 6 mM MgCl2, 1 mM DTT, 0.1% Tween-20, 0.2 mg/ml BSA; 25 C; 10 min per concentration, then washed
# Settings: tags: His6-TwinStrep-SUMO cleaved; N-terminal SNAP kept (SNAP-Surface 488); label: 3' end held by stalled T7 RNA polymerase
row,Binder,Kd [nM]
1,B1,36.5 ± 7
2,B2,72 ± 9
3,B3,14.5 ± 1.85
4,B4,86.5 ± 13
5,B5,17.4 ± 1.7
6,B6,65.5 ± 7.5
7,B7,50 ± 7.5
8,B8,17.1 ± 3.8
9,B9,95.5 ± 22.5
10,B10,63 ± 8.5
11,B11,30.4 ± 3.8
12,B12,24.9 ± 1.9
13,B13,39.8 ± 3.75
14,B14,33 ± 5.5
15,B15,59 ± 25.5
16,B16,86.5 ± 29
17,B17,~69

row,Binder,Kd [nM]
1,B18,16.6 ± 2.3
2,B19,39 ± 12
3,B20,98 ± 44.5
4,B21,41.5 ± 6
5,B22,17.9 ± 1.2
6,B23,~82
7,B24,39.5 ± 11
8,B25,4.89 ± 0.35
9,B26,20.6 ± 2.75
10,B27,23.6 ± 4.15
11,B28,48 ± 10
12,B29,82 ± 14.5
13,B30,13.7 ± 0.6
14,B31,24.9 ± 2.3
15,B32,57 ± 10
16,B33,9.6 ± 1
